These results are taken from paper PMC3111228 (The Journal of neuroscience : the official journal of the …, 2011).

For the experiment, the target named is recombinant CaM (calmodulin) (UniProt P0DP23 1-149). The experiment is described as follows: pull-down.

B1: GST-mGluR5-Cprox with EKST exchanged (domain or fragment)
chain: PERNVRSAFTTSTVVRMHVGDGKSSSAASRSSSLVNLWKRRGSSGETLSSNGKSVTWAQNRQAPRGQHLWQRLSVHINKKENPNQTAVIKPFPKSTENRGPGAAAGGGSGPGVAGAG
Turning to B1, the binding result is “binds”.

B2: GST-mGluR1-Cprox with mGluR5 888-EKSTRGQHL-896 in place of 901-…-909 (domain or fragment)
chain: PERNVRSAFTTSDVVRMHVGDGKLPCRSNTFLNIFRRKKPGAGNANSNGKSVSWSEPGGEKSTRGQHLWQRLSVHVKTNETACNQTAVIKPLTKSYQGSGKSLTFSDASTKTLYNVEE
For the molecule B2, the binding result is recorded as “binds”.

B3: GST-mGluR1 V909L (domain or fragment)
chain: PERNVRSAFTTSDVVRMHVGDGKLPCRSNTFLNIFRRKKPGAGNANSNGKSVSWSEPGGRQAPKGQHLWQRLSVHVKTNETACNQTAVIKPLTKSYQGSGKSLTFSDASTKTLYNVEE
For the molecule B3, the binding result was “binds”.
